Entries after “also recorded” stand apart in the source; their conditions may differ.
Assays:
Human mPB CD34+ cells = assay: Proliferative activity on human granulocyte progenitors (flow cytometry); format: cell-based; details: 7 days
Description: Human mPB CD34^+ cells were purchased from AllCells. Cells were resuspended in HSC expansion medium (StemSpan SFEM, StemCell Technologies) supplemented with 1× antibiotics and the following recombinant human cytokines thrombopoietin, IL6, Flt3 ligand, and stem cell factor (100 ng/mL, R & D Systems), then plated in 96-well plates (1000 cells per well), with varied concentrations of BLV1H12-bGCSF fusion antibodies. Cells were cultured for 7 days at 37° C. in a 5% CO2 incubator, then analyzed by flow cytometry to measure cell number and expression of CD45ra and CD41. Cells were stained in staining medium (HBSS supplemented with 2% FBS and 2 mM EDTA) at 4° C. for 1 h with PECy7 anti-CD45ra and eFluor 450 anti-CD41 (eBiosciences), then washed with staining medium and analyzed. Multicolor analysis for cell phenotyping was performed on a LSR II flow cytometer (Becton Dickinson). FIGS. 10A-10E and Tables 9-10 show the human granulocyte progenitor cell proliferative activities of the Ab-GCSF fusion antibodies.

Mouse NFS-60 cells = assay: Proliferation assay on mouse NFS-60 cells (AlamarBlue); format: cell-based; details: 72 hours
Description: Mouse NFS-60 cells were obtained from American Type Culture Collection (ATCC), VA, and cultured in RPMI-1640 medium supplemented with 10% fetal bovine serum (FBS), 0.05 mM 2-mercapoethanol and 62 ng/ml human macrophage colony stimulating factor (M-CSF). For proliferation assay, mouse NFS-60 cells were washed three times with RPMI-1640 medium and resuspended in RPMI-1640 medium with 10% FBS and 0.05 mM 2-mercapoethanol at a density of 1.5×10^5 cells/ml. In 96-well plates, 100 μl of cell suspension was added into each well, followed by the addition of varied concentrations of bGCSF, BLV1H12 antibody, and the immunoglobulin constructs described herein, Equal volume of PBS buffer was added into the control wells. The plates were incubated at 37° C. in a 5% CO2 incubator for 72 hours. Cells were then treated with AlamarBlue (Invitrogen) ( 1/10 volume of cell suspension) for 4 hours at 37° C. Fluorescence at 595 nm for each well was read to indicate the cell viability.

[1] = test system: NS2-3 non-structural proteins of BVDV; assay: Immunocytometric analysis of HEK 293A cells transfected with BVDV antigens; format: binding; details: 10 μg/ml antibody
Description: Additionally, binding of the chimeric recombinant antibodies to BVDV antigens was evaluated by immunocytometric analysis of transfected human embryonic kidney (HEK) 293A cells (Invitrogen), as previously described (see, e.g., Njongmeta et al. (2012) Vaccine 30:1624-1635). Briefly, HEK 293A monolayers grown in 6-well tissue culture plates were transfected with 2 μg/well of plasmid (pcDNA3.3, Invitrogen) encoding BVDV antigens (N^pro, E2, or non-structural proteins NS2-3) using Lipofectamine 2000 reagent (Invitrogen), and incubated for 48 hr at 37° C. with 5% CO2. The monolayers were fixed with ice-cold 100% methanol for 10 minutes, rinsed with PBS, and after blocking for 1 hr with PBS containing 5% fetal bovine serum (blocking buffer), the monolayers were incubated at room temperature for 1 hr with 10 μg/ml of a mouse anti-FLAG M2-alkaline phosphatase (AP)-conjugate (Sigma) in blocking buffer or 10 μg/ml of the chimeric recombinant antibodies (H12 or B8). […] Following washes in blocking buffer, the AP activity in all the wells was detected using Fast Red AS-MX substrate (Sigma). […]

B1: hGCSF: human G-CSF (protein, UniProt P09919 31-207, looked up)
Granulocyte …: TPLGPASSLPQSFLLKCLEQVRKIQGDGAALQEKLVSECATYKLCHPEELVLLGHSLGIPWAPLSSCPSQALQLAGCLSQLHSGLFLYQGLLQALEGISPELGPTLDTLQLDVADFATTIWQQMEELGMAPALQPTQGAMPAFASAFQRRAGGVLVASHLQSFLEVSYRVLRHLAQP
- Number of CD45RA− CD41− (Human mPB CD34+ cells; 0.05081 ng/mL): 4175
- Number of CD45RA− CD41− (Human mPB CD34+ cells; 0.15242 ng/mL): 3651
- Number of CD45RA− CD41− (Human mPB CD34+ cells; 0.45725 ng/mL): 3671
- Number of CD45RA− CD41− (Human mPB CD34+ cells; 1.37174 ng/mL): 4299
- Number of CD45RA− CD41− (Human mPB CD34+ cells; 4.11523 ng/mL): 5900
- Number of CD45RA− CD41− (Human mPB CD34+ cells; 12.34568 ng/mL): 7784
- Number of CD45RA− CD41− (Human mPB CD34+ cells; 37.03704 ng/mL): 10500
- Number of CD45RA− CD41− (Human mPB CD34+ cells; 111.11111 ng/mL): 12200
- Number of CD45RA− CD41− (Human mPB CD34+ cells; 333.33333 ng/mL): 14100
- Number of CD45RA− CD41− (Human mPB CD34+ cells; 1000 ng/mL): 13900
- F.I. (AlamarBlue fluorescence at 595 nm, cell viability) (Mouse NFS-60 cells; 0.09145 ng/mL): 1266.554
- F.I. (AlamarBlue fluorescence at 595 nm, cell viability) (Mouse NFS-60 cells; 0.27435 ng/mL): 1478.287
- F.I. (AlamarBlue fluorescence at 595 nm, cell viability) (Mouse NFS-60 cells; 0.82305 ng/mL): 1752.216
- F.I. (AlamarBlue fluorescence at 595 nm, cell viability) (Mouse NFS-60 cells; 2.46914 ng/mL): 2224.028
- F.I. (AlamarBlue fluorescence at 595 nm, cell viability) (Mouse NFS-60 cells; 7.40741 ng/mL): 2587.222
- F.I. (AlamarBlue fluorescence at 595 nm, cell viability) (Mouse NFS-60 cells; 22.22222 ng/mL): 2751.249
- F.I. (AlamarBlue fluorescence at 595 nm, cell viability) (Mouse NFS-60 cells; 66.66667 ng/mL): 2815.37
- F.I. (AlamarBlue fluorescence at 595 nm, cell viability) (Mouse NFS-60 cells; 200 ng/mL): 2948.509

B2: H12 (protein, listed as Bos taurus)
chain: CVIVHQKTTQQSSCPAGFRDCVACTPGPESCCRSGCDGARRRVGLRYFFDSTSPITTYTYEHHIDAW
modifications: H12
- binding to HEK293A cells transfected with NS2-3 ([1]; HEK293A cells transfected with the NS2-3 non-structural proteins of BVDV): binds NS2-3 on cells; also recorded: strongly binds
- binding to untransfected cells ([1]; untransfected HEK293A cells): weakly bound

From patent US20140050720A1, “ULTRALONG COMPLEMENTARITY DETERMINING REGIONS AND USES THEREOF” (THE SCRIPPS RESEARCH INSTITUTE, priority 2012, published 2014)
